In PMC7425812 (Nature cell biology, 2020):
Like-named read-outs stand apart in the source and are kept apart here.

Tests used:
[1] = molecular target: the molecule itself; assay: SDS-resistant dimer on SDS-PAGE immunoblot
[2] = molecular target: the molecule itself; assay: SDS-resistant dimer on SDS-PAGE immunoblot; remark: listed apart in the source

Protein	stoichiometry N [1]	stoichiometry N [2]
FLAG-HA-tagged AKAP95 (FH-AKAP95), wild type (natural protein) not shown	2	
AKAP95 (endogenous, HeLa cell nuclear extract) (natural protein) not shown		2
